Laboratory results published in US20070166308A1 (Amgen, published 2007).
Changes are numbered by the printed parent chain.

T1: VCAM (Panvera) (UniProt P19320 25-698, limits assumed)
T1 sequence (looked up): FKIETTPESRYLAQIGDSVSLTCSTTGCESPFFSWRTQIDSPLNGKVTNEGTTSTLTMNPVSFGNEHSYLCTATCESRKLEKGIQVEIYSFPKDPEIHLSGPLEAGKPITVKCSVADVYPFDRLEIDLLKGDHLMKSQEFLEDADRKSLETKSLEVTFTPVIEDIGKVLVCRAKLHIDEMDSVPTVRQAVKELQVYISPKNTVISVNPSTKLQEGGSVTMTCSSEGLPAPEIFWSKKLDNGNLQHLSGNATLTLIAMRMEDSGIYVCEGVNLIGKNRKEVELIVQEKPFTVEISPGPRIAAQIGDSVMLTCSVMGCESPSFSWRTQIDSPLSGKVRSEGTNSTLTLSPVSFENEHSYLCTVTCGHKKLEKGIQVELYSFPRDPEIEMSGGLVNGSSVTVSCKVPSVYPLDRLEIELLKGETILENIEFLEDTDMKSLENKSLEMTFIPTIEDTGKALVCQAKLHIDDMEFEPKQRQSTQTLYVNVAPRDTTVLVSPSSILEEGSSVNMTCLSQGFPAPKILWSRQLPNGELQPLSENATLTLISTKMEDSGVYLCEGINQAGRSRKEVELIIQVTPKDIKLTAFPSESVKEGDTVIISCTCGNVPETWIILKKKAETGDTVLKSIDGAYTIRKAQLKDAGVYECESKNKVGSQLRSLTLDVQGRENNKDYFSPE

B1: anti-MAdCAM monoclonal antibody 7.20.5 (antibody, human IgG2, kappa, V domains shown)
VH: QVQLQESGPGLVKPSETLSLTCTVSGSSISSYHWNWIRQPAGKGLEWIGRIYTSGSTNYNPSLKSRVTMSLDTSKNQFSLKLSSVTAADTAVYYCAREGVRYYYASGSYYYGLDVWGQGTTVTVSS
VL: not shown
notes: fully human IgG2 kappa from hybridoma; signal peptide left out
B2: anti-MAdCAM monoclonal antibody 6.34.2 (antibody, human IgG4, kappa, V domains shown)
VH: QVQLVESGGGVVQPGRSLRLSCAASGFTFSSYGMHWVRQAPGKGLEWVAVISNDGNNKYYADSVKGRFTISRDNSKNTLYLQMNSLSAEDTAVYYCARDSTAITYYYYGMDVWGQGTTVTVSS
VL: DIQMTQSPSSLSASVGDRVTITCRASQNISSYLNWFQQKPGKAPKLLIYAASGLKRGVPSRFSGSGSGTDFTLTIRTLQPDDFATYSCHQSYSLPFTFGPGTKVDIKR
notes: fully human IgG4 kappa from hybridoma; signal peptide left out; kappa chain stained positive for glycosylation
B3: modified anti-MAdCAM monoclonal antibody 6.34.2-mod (antibody, human IgG2, kappa, V domains shown)
VH: B2 VH with S87R
VL: B2 VL with N28S, F36Y, R76S, T77S, D81E, S87Y
notes: human IgG2 kappa, made in HEK 293T cells; signal peptide left out
B4: anti-MAdCAM monoclonal antibody 6.67.1 (antibody, human IgG4, kappa, V domains shown)
VH: QVQLQESGPGLVKPSETLSLTCTVSGDSISSNYWSWIRQPAGKGLEWIGRIYTSGGTNSNPSLRGRVTILADTSKNQFSLKLSSVTAADTAVYYCARDRITIIRGLIPSFFDYWGQGTLVTVSS
VL: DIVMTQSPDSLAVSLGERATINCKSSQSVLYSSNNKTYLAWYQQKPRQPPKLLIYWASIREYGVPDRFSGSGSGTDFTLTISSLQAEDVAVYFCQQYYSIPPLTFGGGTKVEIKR
notes: as for B2
B5: modified anti-MAdCAM monoclonal antibody 6.67.1-mod (antibody, human IgG2, kappa, V domains shown)
VH: B4 VH with I69M, L70S, A71V
VL: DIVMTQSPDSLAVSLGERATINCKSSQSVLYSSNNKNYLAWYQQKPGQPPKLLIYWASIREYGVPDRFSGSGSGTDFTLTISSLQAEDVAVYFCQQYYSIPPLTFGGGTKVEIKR
notes: as for B3
B6: anti-MAdCAM monoclonal antibody 6.22.2 (antibody, human IgG4, kappa, V domains shown)
VH: QVQLVESGGGVVQPGRSLRLSCAASGHTFSSDGMHWVRQAPGKGLEWVAIIWYDGSNKYYADSVKGRFTISRDNSKNTLYLQMNSLRAEDTAVYYCARDPGYYYGMDVWGQGTTVTVSS
VL: EIVLTQSPDFQSVTPKEKVTITCRASQRIGSSLHWYQQKPDQSPKLLIKYASQSFSGVPSRFSGSGSGTNFTLTINGLEAEDAATYYCHQSGRLPLTFGGGTKVEIKR
notes: as for B2
B7: modified anti-MAdCAM monoclonal antibody 6.22.2-mod (antibody, human IgG2, kappa, V domains shown)
VH: B6 VH with H27F
VL: B6 VL with N70D, G77S
notes: as for B3
B8: modified anti-MAdCAM monoclonal antibody 7.26.4-mod (antibody, human IgG2, kappa, V domains shown)
VH: QVQLVQSGAEVKKPGASVKVSCEASGYTFTSYGIDWVRQAPGQGLEWMGWISVYSGNTNYAQKLQGRVTMSTDTSTSTAYMELRSLRSDDTAVYYCAREGSSSSGDYYYGMDVWGQGTTVTVSS
VL: DIVMTQTPLSLSVTPGQPASISCKSSQSLLYSDGKTYLFWYLQKPGQPPQLLIYEVSNRFSGVPDRFSGSGSGTDFTLKISRVEAEDVGVYYCMQSIQLPWTFGQGTKVEIKR
notes: human IgG2 kappa, parental heavy chain with modified kappa chain, made in HEK 293T cells; signal peptide left out
B9: modified anti-MAdCAM monoclonal antibody 6.77.1-mod (antibody, human IgG2, kappa, V domains shown)
VH: EVQLVESGGGLVKPGGSLRLSCAASGFTFSSYSMNWVRQAPGKGLEWVSSISSSSSYIYYADSVKGRFTISRDNAKNSLYLQMNSLRAEDTAVYYCARDGYSSGWSYYYYYGMDVWGQGTTVTVSS
VL: B8 VL with Y31L, F39N, Y92S, P100M, W101S, T102S, V109L
notes: as for B3
B10: anti-MAdCAM monoclonal antibody 6.73.2 (antibody, human IgG4, kappa, V domains shown)
VH: EVQLLESGGDLVQPGGSLRLSCAASGFTFRSYAMNWVRQAPGKGLEWVSVISGRGGTTYYADSVKGRFTISRDNSKNTLYLQMNSLRAEDAAVYYCAKIAVAGEGLYYYYGMDVWGQGTTVTVSS
VL: DIQMTQSPSSLSASVGDRVTFTCRASQNITNYLNWYQQKPGKAPKLLIYAASSLPRGVPSRFRGSGSGTDFTLTISSLQPEDFATYYCQQSYSNPPECGFGQGTTLDIKR
B11: anti-MAdCAM monoclonal antibody 1.7.2 (antibody, human IgG2, kappa, V domains shown)
VH: EVQLVESGGGLVKPGGSLRLSCVASGFTFTNAWMIWVRQAPGKGLEWVGRIKRKTDGGTTDYAAPVKGRFTISRDDSKNTLYLQMNSLKTEDTAVYYCTTGGVAEDYWGQGTLVTVSS
VL: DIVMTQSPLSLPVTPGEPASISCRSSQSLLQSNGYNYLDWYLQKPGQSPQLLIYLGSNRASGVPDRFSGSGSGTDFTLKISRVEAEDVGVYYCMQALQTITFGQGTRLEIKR
B12: anti-MAdCAM monoclonal antibody 1.8.2 (antibody, human IgG2, kappa, V domains shown)
VH: B11 VH with A24V
VL: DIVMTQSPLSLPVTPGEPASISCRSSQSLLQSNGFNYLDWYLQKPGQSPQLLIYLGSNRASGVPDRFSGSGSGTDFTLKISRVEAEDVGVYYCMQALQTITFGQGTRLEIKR
B13: anti-MAdCAM monoclonal antibody 6.14.2 (antibody, human IgG4, kappa, V domains shown)
VH: EVQLLESGGGLVQPGGSLRLSCAASGLTFNNSAMTWVRQAPGKGLEWVSTTSGSGGTTYYADSVKGRFTISRDSPKNTLYLQMNSLRAEDTAVYYCAARGYSYGTTPYEYWGQGTLVTVSS
VL: DIQMTQSPSSLSASVGDRVTITCRASRSISSYLNWYQQKPGKAPKVLIFFVSSLQSGVPSRFSGSGSGTDFTLTISSLQPEDFATYYCQQNYIPPITFGQGTRLEIRR
B14: anti-MAdCAM monoclonal antibody 6.77.1 (antibody, human IgG4, kappa, V domains shown)
VH: B9 VH
VL: B8 VL with K24N, Y31L, F39N, Y92S, P100M, W101C, T102S, V109L
notes: as for B2
B15: anti-MAdCAM monoclonal antibody 7.16.6 (antibody, human IgG2, kappa, V domains shown)
VH: B8 VH with E23K, D35N, L64V, S71T, T72A, E82D
VL: B8 VL with Y31H, S32T, K35T, F39Y, V90I, S96N

Target: T2, MAdCAM-IgG1 Fc fusion protein (human)
T2 construct: Expressed in CHO-DHFR cells; also called MAdCAM-IgFc; soluble MAdCAM (in the sandwich ELISA)
Experiment: adhesion of calcein-loaded α4β7+ JY cells to coated MAdCAM-IgG1 Fc, blocked by antibody
Procedure: (§1) The cells were washed twice with RPMI 1640 media (Gibco) containing 2 mM L-glutamine (Gibco) by centrifugation (240 g), resuspending the final cell pellet at 2×10⁶ cells/mL in RPMI 1640 for Calcein AM loading. Calcein AM (Molecular Probes #C-3099) was added to the cells as a 1:200 dilution in DMSO (ca. final concentration 5 μM) and the cells protected from light during the course of the incubation (37° C. for 30 min). During this cell incubation step the antibodies to be tested, were diluted as follows: for single dose testing, the antibodies were made up to 3 μg/mL (1 μg/mL final) in 0.1 mg/mL BSA (Sigma#A3059) in PBS; for full IC₅₀ curves, the antibodies were diluted in 0.1 mg/mL BSA/PBS, with 3 μg/mL (1 μg/mL final) being the top concentration, then doubling dilutions (1:2 ratio) across the plate. The final well of the row was used for determining total binding, so 0.1 mg/ml BSA in PBS was used.
After blocking, the plate contents were flicked out and 50 μL of antibodies/controls were added to each well and the plate incubated at 37° C. for 20 min. During this time, Calcein-loaded JY cells were washed once with RPMI 1640 media containing 10% fetal bovine serum and once with 1 mg/mL BSA/PBS by centrifugation, resuspending the final cell pellet to 1×10⁶/mL in 1 mg/mL BSA/PBS. 100 μL of cells were added to each well of the U bottomed plate, the plate sealed, briefly centrifuged (1000 rpm for 2 min) and the plate then incubated at 37° C. for 45 min. At the end of this time, the plates were washed with a Skatron plate washer and fluorescence measured using a Wallac Victor² 1420 Multilabel Reader (excitation λ 485 nm, emission λ 535 nm count from top, 8 mm from bottom of plate, for 0.1 sec with normal emission aperture). For each antibody concentration, percent adhesion was expressed as a percentage of maximal fluorescence response in the absence of any antibody minus fluorescence associated with non-specific binding. […]

T2 sequence (chain, as listed by the source limits assumed): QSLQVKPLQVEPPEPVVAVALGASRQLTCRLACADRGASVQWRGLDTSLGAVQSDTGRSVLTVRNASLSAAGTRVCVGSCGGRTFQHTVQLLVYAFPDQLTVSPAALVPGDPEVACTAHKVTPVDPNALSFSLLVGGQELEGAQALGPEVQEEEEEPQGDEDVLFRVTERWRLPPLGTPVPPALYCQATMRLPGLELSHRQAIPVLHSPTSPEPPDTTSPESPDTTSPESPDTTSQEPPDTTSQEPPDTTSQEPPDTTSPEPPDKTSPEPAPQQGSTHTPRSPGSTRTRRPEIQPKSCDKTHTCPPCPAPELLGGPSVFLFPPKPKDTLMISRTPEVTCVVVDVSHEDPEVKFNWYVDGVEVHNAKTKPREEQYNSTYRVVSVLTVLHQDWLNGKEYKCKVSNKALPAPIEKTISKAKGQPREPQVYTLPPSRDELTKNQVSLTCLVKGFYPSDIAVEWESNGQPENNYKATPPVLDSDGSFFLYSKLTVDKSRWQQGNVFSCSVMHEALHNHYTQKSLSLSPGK

Which IC50 does the source give for B1 here?
The IC50 was < 0.1 µg/mL.

Target: T2, MAdCAM-IgG1 Fc fusion protein
Experiment: MAdCAM-IgG1 Fc fusion / JY cell adhesion assay, mean IC50
Procedure: as §1
After blocking, the plate contents were flicked out and 50 μL of antibodies/controls were added to each well and the plate incubated at 37° C. for 20 min. During this time, Calcein-loaded JY cells were washed once with RPMI 1640 media containing 10% fetal bovine serum and once with 1 mg/mL BSA/PBS by centrifugation, resuspending the final cell pellet to 1×10⁶/mL in 1 mg/mL BSA/PBS. 100 μL of cells were added to each well of the U bottomed plate, the plate sealed, briefly centrifuged (1000 rpm for 2 min) and the plate then incubated at 37° C. for 45 min. At the end of this time, the plates were washed with a Skatron plate washer and fluorescence measured using a Wallac Victor² 1420 Multilabel Reader (excitation λ 485 nm, emission λ 535 nm count from top, 8 mm from bottom of plate, for 0.1 sec with normal emission aperture). For each antibody concentration, percent adhesion was expressed as a percentage of maximal fluorescence response in the absence of any antibody minus fluorescence associated with non-specific binding. The IC₅₀ value is defined as the anti-MAdCAM antibody concentration at which the adhesion response is decreased to 50% of the response in the absence of anti-MAdCAM antibody.

With B2 as the binder, how does the IC50 read?
The IC50 was 0.013 µg/mL.

Which IC50 does the source give for B3 here?
The IC50 was 0.049 µg/mL.

How did the IC50 turn out when B4 was run?
Its IC50 is 0.013 µg/mL.

How did the IC50 turn out when B5 was run?
The IC50 was 0.037 µg/mL.

For B6, which IC50 is on record?
The IC50 was 0.018 µg/mL.

How did the IC50 turn out when B7 was run?
The IC50 was 0.058 µg/mL.

With B8 as the binder, how does the IC50 read?
Its IC50 is 0.033 µg/mL.

With B9 as the binder, how does the IC50 read?
Its IC50 is 0.077 µg/mL.

Target: Fibronectin cell binding fragment (110 Kd, Europa Bioproducts Ltd, Cat. No. UBF4215-18) (UniProt P02751-1 722-1635)
Experiment: cell-based or functional assay

Chain of Fibronectin cell binding fragment (110 Kd, Europa Bioproducts Ltd, Cat. No. UBF4215-18) (P02751 other isoform, or with tags, fused parts or gaps limits assumed): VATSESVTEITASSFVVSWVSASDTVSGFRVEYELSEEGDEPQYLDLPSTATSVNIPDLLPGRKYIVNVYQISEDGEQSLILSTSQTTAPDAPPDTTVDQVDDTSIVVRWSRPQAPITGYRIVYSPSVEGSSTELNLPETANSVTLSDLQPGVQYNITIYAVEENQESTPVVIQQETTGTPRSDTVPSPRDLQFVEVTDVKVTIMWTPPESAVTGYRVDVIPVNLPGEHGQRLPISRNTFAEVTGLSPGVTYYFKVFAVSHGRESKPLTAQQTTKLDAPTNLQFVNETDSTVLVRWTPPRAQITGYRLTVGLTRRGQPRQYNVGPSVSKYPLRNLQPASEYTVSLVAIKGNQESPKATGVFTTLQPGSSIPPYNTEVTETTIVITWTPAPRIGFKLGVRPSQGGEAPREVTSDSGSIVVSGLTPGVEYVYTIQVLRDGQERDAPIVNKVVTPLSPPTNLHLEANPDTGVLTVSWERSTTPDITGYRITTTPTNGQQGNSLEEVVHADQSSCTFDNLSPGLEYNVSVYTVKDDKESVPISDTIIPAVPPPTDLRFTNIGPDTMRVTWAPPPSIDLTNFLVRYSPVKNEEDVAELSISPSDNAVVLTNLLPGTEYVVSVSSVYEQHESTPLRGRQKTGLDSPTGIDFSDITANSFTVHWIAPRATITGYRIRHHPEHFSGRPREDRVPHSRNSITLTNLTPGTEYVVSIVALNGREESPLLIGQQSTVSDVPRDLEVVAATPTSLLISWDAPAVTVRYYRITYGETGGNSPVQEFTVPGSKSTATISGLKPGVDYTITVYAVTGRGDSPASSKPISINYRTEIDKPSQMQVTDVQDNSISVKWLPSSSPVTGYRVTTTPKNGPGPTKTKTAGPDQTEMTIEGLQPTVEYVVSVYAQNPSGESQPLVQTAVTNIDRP

B2 was tested. Which “inhibition of adhesion of α4β1+/α5β1+ Jurkat T-cells to coated Fibronectin cell binding fragment” value did it give?
Its value is > 100 fold.

For B1, which “inhibition of adhesion of α4β1+/α5β1+ Jurkat T-cells to coated Fibronectin cell binding fragment” value is on record?
Its value is > 100 fold.

Which “inhibition of adhesion of α4β1+/α5β1+ Jurkat T-cells to coated Fibronectin cell binding fragment” value does the source give for B4 here?
Its value is > 100 fold.

How did the “inhibition of adhesion of α4β1+/α5β1+ Jurkat T-cells to coated Fibronectin cell binding fragment” value turn out when B10 was run?
Its value is > 100 fold.

B6 was tested. Which “inhibition of adhesion of α4β1+/α5β1+ Jurkat T-cells to coated Fibronectin cell binding fragment” value did it give?
The value was > 100 fold.

B11 was tested. Which “inhibition of adhesion of α4β1+/α5β1+ Jurkat T-cells to coated Fibronectin cell binding fragment” value did it give?
The value was > 100 fold.

B12 was tested. Which “inhibition of adhesion of α4β1+/α5β1+ Jurkat T-cells to coated Fibronectin cell binding fragment” value did it give?
Its value is > 100 fold.

For B13, which “inhibition of adhesion of α4β1+/α5β1+ Jurkat T-cells to coated Fibronectin cell binding fragment” value is on record?
Its value is > 100 fold.

How did the “inhibition of adhesion of α4β1+/α5β1+ Jurkat T-cells to coated Fibronectin cell binding fragment” value turn out when B14 was run?
Its value is > 100 fold.

For B15, which “inhibition of adhesion of α4β1+/α5β1+ Jurkat T-cells to coated Fibronectin cell binding fragment” value is on record?
Its value is > 100 fold.

Target: T1, VCAM (Panvera)
Experiment: cell-based or functional assay

Which “inhibition of adhesion of α4β1+/α5β1+ Jurkat T-cells to coated VCAM” value (“inhibition of adhesion … to coated VCAM” below) does the source give for B2 here?
The value was > 100 fold.

B1 was tested. Which “inhibition of adhesion … to coated VCAM” value did it give?
Its value is > 100 fold.

Which “inhibition of adhesion … to coated VCAM” value does the source give for B4 here?
The value was > 100 fold.

With B10 as the binder, how does the “inhibition of adhesion … to coated VCAM” value read?
Its value is > 100 fold.

Which “inhibition of adhesion … to coated VCAM” value does the source give for B6 here?
The value was > 100 fold.

How did the “inhibition of adhesion … to coated VCAM” value turn out when B11 was run?
Its value is > 100 fold.

How did the “inhibition of adhesion … to coated VCAM” value turn out when B12 was run?
The value was > 100 fold.

Which “inhibition of adhesion … to coated VCAM” value does the source give for B13 here?
The value was > 100 fold.

How did the “inhibition of adhesion … to coated VCAM” value turn out when B14 was run?
Its value is > 100 fold.

With B15 as the binder, how does the “inhibition of adhesion … to coated VCAM” value read?
Its value is > 100 fold.
